Source: US20240000838A1 (SIMCERE INNOVATION, published 2024)

B1: CD5/CD33 Dual-CAR, construct S042 (other)
chain: DIQMTQSPSSLSASVGDRVTITCRASESVDNYGISFMNWFQQKPGKAPKLLIYAASNQGSGVPSRFSGSGSGTDFTLTISSLQPDDFATYYCQQSKEVPWTFGQGTKVEIKGGGGSEIQLVQSGGGLVKPGGSVRISCAASGYTFTNYGMNWVRQAPGKGLEWMGWINTHTGEPTYADSFKGRFTFSLDDSKNTAYLQINSLRAEDTAVYFCTRRGYDWYFDVWGQGTTVTVSSGSTSGSGKPGSGEGSTKGDIQMTQSPSSLSASVGDRVTITCRASQDINSYLSWFQQKPGKAPKTLIYRANRLESGVPSRFSGSGSGTDYTLTISSLQYEDFGIYYCQQYDESPWTFGGGTKLEIKGGGGSQVQLVQSGAEVKKPGSSVKVSCKASGYTFTDYNMHWVRQAPGQGLEWIGYIYPYNGGTGYNQKFKSKATITADESTNTAYMELSSLRSEDTAVYYCARGRPAMDYWGQGTLVTVSSASTTTPAPRPPTPAPTIASQPLSLRPEACRPAAGGAVHTRGLDFACDIYIWAPLAGTCGVLLLSLVITLYCKRGRKKLLYIFKQPFMRPVQTTQEEDGCSCRFPEEEEGGCELRVKFSRSADAPAYKQGQNQLYNELNLGRREEYDVLDKRRGRDPEMGGKPRRKNPQEGLYNELQKDKMAEAYSEIGMKGERRRGKGHDGLYQGLSTATKDTYDALHMQALPPR
B2: CD5/CD33 Dual-CAR, construct S037 (other)
chain: NIQLVQSGPELKKPGETVKISCKASGYTFTNYGMNWVKQAPGKGLRWMGWINTHTGEPTYADDFKGRFAFSLETSASTAYLQINNLKNEDTATYFCTRRGYDWYFDVWGAGTTVTVSSGGGGSDIQMTQSPSSLSASVGDRVTITCRASESVDNYGISFMNWFQQKPGKAPKLLIYAASNQGSGVPSRFSGSGSGTDFTLTISSLQPDDFATYYCQQSKEVPWTFGQGTKVEIKGSTSGSGKPGSGEGSTKGQVQLVQSGAEVKKPGSSVKVSCKASGYTFTDYNMHWVRQAPGQGLEWIGYIYPYNGGTGYNQKFKSKATITADESTNTAYMELSSLRSEDTAVYYCARGRPAMDYWGQGTLVTVSSGGGGSDIKMTQSPSSMYASLGERVTITCKASQDINSYLSWFHHKPGKSPKTLIYRANRLVDGVPSRFSGSGSGQDYSLTISSLDYEDMGIYYCQQYDESPWTFGGGTKLEMKASTTTPAPRPPTPAPTIASQPLSLRPEACRPAAGGAVHTRGLDFACDIYIWAPLAGTCGVLLLSLVITLYCKRGRKKLLYIFKQPFMRPVQTTQEEDGCSCRFPEEEEGGCELRVKFSRSADAPAYKQGQNQLYNELNLGRREEYDVLDKRRGRDPEMGGKPRRKNPQEGLYNELQKDKMAEAYSEIGMKGERRRGKGHDGLYQGLSTATKDTYDALHMQALPPR
B3: CD5/CD33 Dual-CAR, construct S038 (other)
chain: DIQMTQSPSSLSASVGDRVTITCRASESVDNYGISFMNWFQQKPGKAPKLLIYAASNQGSGVPSRFSGSGSGTDFTLTISSLQPDDFATYYCQQSKEVPWTFGQGTKVEIKGGGGSNIQLVQSGPELKKPGETVKISCKASGYTFTNYGMNWVKQAPGKGLRWMGWINTHTGEPTYADDFKGRFAFSLETSASTAYLQINNLKNEDTATYFCTRRGYDWYFDVWGAGTTVTVSSGSTSGSGKPGSGEGSTKGDIKMTQSPSSMYASLGERVTITCKASQDINSYLSWFHHKPGKSPKTLIYRANRLVDGVPSRFSGSGSGQDYSLTISSLDYEDMGIYYCQQYDESPWTFGGGTKLEMKGGGGSQVQLVQSGAEVKKPGSSVKVSCKASGYTFTDYNMHWVRQAPGQGLEWIGYIYPYNGGTGYNQKFKSKATITADESTNTAYMELSSLRSEDTAVYYCARGRPAMDYWGQGTLVTVSSASTTTPAPRPPTPAPTIASQPLSLRPEACRPAAGGAVHTRGLDFACDIYIWAPLAGTCGVLLLSLVITLYCKRGRKKLLYIFKQPFMRPVQTTQEEDGCSCRFPEEEEGGCELRVKFSRSADAPAYKQGQNQLYNELNLGRREEYDVLDKRRGRDPEMGGKPRRKNPQEGLYNELQKDKMAEAYSEIGMKGERRRGKGHDGLYQGLSTATKDTYDALHMQALPPR
B4: CD5/CD33 Dual-CAR, construct S041 (other)
chain: EIQLVQSGGGLVKPGGSVRISCAASGYTFTNYGMNWVRQAPGKGLEWMGWINTHTGEPTYADSFKGRFTFSLDDSKNTAYLQINSLRAEDTAVYFCTRRGYDWYFDVWGQGTTVTVSSGGGGSDIQMTQSPSSLSASVGDRVTITCRASESVDNYGISFMNWFQQKPGKAPKLLIYAASNQGSGVPSRFSGSGSGTDFTLTISSLQPDDFATYYCQQSKEVPWTFGQGTKVEIKGSTSGSGKPGSGEGSTKGQVQLVQSGAEVKKPGSSVKVSCKASGYTFTDYNMHWVRQAPGQGLEWIGYIYPYNGGTGYNQKFKSKATITADESTNTAYMELSSLRSEDTAVYYCARGRPAMDYWGQGTLVTVSSGGGGSDIQMTQSPSSLSASVGDRVTITCRASQDINSYLSWFQQKPGKAPKTLIYRANRLESGVPSRFSGSGSGTDYTLTISSLQYEDFGIYYCQQYDESPWTFGGGTKLEIKASTTTPAPRPPTPAPTIASQPLSLRPEACRPAAGGAVHTRGLDFACDIYIWAPLAGTCGVLLLSLVITLYCKRGRKKLLYIFKQPFMRPVQTTQEEDGCSCRFPEEEEGGCELRVKFSRSADAPAYKQGQNQLYNELNLGRREEYDVLDKRRGRDPEMGGKPRRKNPQEGLYNELQKDKMAEAYSEIGMKGERRRGKGHDGLYQGLSTATKDTYDALHMQALPPR
B5: CD5/CD33 Dual-CAR, construct S036 (other)
chain: DIKMTQSPSSMYASLGERVTITCKASQDINSYLSWFHHKPGKSPKTLIYRANRLVDGVPSRFSGSGSGQDYSLTISSLDYEDMGIYYCQQYDESPWTFGGGTKLEMKGGGGSQVQLVQSGAEVKKPGSSVKVSCKASGYTFTDYNMHWVRQAPGQGLEWIGYIYPYNGGTGYNQKFKSKATITADESTNTAYMELSSLRSEDTAVYYCARGRPAMDYWGQGTLVTVSSGSTSGSGKPGSGEGSTKGDIQMTQSPSSLSASVGDRVTITCRASESVDNYGISFMNWFQQKPGKAPKLLIYAASNQGSGVPSRFSGSGSGTDFTLTISSLQPDDFATYYCQQSKEVPWTFGQGTKVEIKGGGGSNIQLVQSGPELKKPGETVKISCKASGYTFTNYGMNWVKQAPGKGLRWMGWINTHTGEPTYADDFKGRFAFSLETSASTAYLQINNLKNEDTATYFCTRRGYDWYFDVWGAGTTVTVSSASTTTPAPRPPTPAPTIASQPLSLRPEACRPAAGGAVHTRGLDFACDIYIWAPLAGTCGVLLLSLVITLYCKRGRKKLLYIFKQPFMRPVQTTQEEDGCSCRFPEEEEGGCELRVKFSRSADAPAYKQGQNQLYNELNLGRREEYDVLDKRRGRDPEMGGKPRRKNPQEGLYNELQKDKMAEAYSEIGMKGERRRGKGHDGLYQGLSTATKDTYDALHMQALPPR
B6: CD5/CD33 Dual-CAR, construct S040 (other)
chain: DIQMTQSPSSLSASVGDRVTITCRASQDINSYLSWFQQKPGKAPKTLIYRANRLESGVPSRFSGSGSGTDYTLTISSLQYEDFGIYYCQQYDESPWTFGGGTKLEIKGGGGSQVQLVQSGAEVKKPGSSVKVSCKASGYTFTDYNMHWVRQAPGQGLEWIGYIYPYNGGTGYNQKFKSKATITADESTNTAYMELSSLRSEDTAVYYCARGRPAMDYWGQGTLVTVSSGSTSGSGKPGSGEGSTKGDIQMTQSPSSLSASVGDRVTITCRASESVDNYGISFMNWFQQKPGKAPKLLIYAASNQGSGVPSRFSGSGSGTDFTLTISSLQPDDFATYYCQQSKEVPWTFGQGTKVEIKGGGGSEIQLVQSGGGLVKPGGSVRISCAASGYTFTNYGMNWVRQAPGKGLEWMGWINTHTGEPTYADSFKGRFTFSLDDSKNTAYLQINSLRAEDTAVYFCTRRGYDWYFDVWGQGTTVTVSSASTTTPAPRPPTPAPTIASQPLSLRPEACRPAAGGAVHTRGLDFACDIYIWAPLAGTCGVLLLSLVITLYCKRGRKKLLYIFKQPFMRPVQTTQEEDGCSCRFPEEEEGGCELRVKFSRSADAPAYKQGQNQLYNELNLGRREEYDVLDKRRGRDPEMGGKPRRKNPQEGLYNELQKDKMAEAYSEIGMKGERRRGKGHDGLYQGLSTATKDTYDALHMQALPPR
B7: CD5/CD33 Dual-CAR, construct S039 (other)
chain: QVQLVQSGAEVKKPGSSVKVSCKASGYTFTDYNMHWVRQAPGQGLEWIGYIYPYNGGTGYNQKFKSKATITADESTNTAYMELSSLRSEDTAVYYCARGRPAMDYWGQGTLVTVSSGGGGSDIKMTQSPSSMYASLGERVTITCKASQDINSYLSWFHHKPGKSPKTLIYRANRLVDGVPSRFSGSGSGQDYSLTISSLDYEDMGIYYCQQYDESPWTFGGGTKLEMKGSTSGSGKPGSGEGSTKGNIQLVQSGPELKKPGETVKISCKASGYTFTNYGMNWVKQAPGKGLRWMGWINTHTGEPTYADDFKGRFAFSLETSASTAYLQINNLKNEDTATYFCTRRGYDWYFDVWGAGTTVTVSSGGGGSDIQMTQSPSSLSASVGDRVTITCRASESVDNYGISFMNWFQQKPGKAPKLLIYAASNQGSGVPSRFSGSGSGTDFTLTISSLQPDDFATYYCQQSKEVPWTFGQGTKVEIKASTTTPAPRPPTPAPTIASQPLSLRPEACRPAAGGAVHTRGLDFACDIYIWAPLAGTCGVLLLSLVITLYCKRGRKKLLYIFKQPFMRPVQTTQEEDGCSCRFPEEEEGGCELRVKFSRSADAPAYKQGQNQLYNELNLGRREEYDVLDKRRGRDPEMGGKPRRKNPQEGLYNELQKDKMAEAYSEIGMKGERRRGKGHDGLYQGLSTATKDTYDALHMQALPPR

biological target: T1, CD5 on human T cells (autologous and allogeneic Pan-T cells) and on the T-ALL cell line CCRF-CEM (human, UniProt P06127 25-495); test: cell-based or functional assay
T1 sequence (looked up): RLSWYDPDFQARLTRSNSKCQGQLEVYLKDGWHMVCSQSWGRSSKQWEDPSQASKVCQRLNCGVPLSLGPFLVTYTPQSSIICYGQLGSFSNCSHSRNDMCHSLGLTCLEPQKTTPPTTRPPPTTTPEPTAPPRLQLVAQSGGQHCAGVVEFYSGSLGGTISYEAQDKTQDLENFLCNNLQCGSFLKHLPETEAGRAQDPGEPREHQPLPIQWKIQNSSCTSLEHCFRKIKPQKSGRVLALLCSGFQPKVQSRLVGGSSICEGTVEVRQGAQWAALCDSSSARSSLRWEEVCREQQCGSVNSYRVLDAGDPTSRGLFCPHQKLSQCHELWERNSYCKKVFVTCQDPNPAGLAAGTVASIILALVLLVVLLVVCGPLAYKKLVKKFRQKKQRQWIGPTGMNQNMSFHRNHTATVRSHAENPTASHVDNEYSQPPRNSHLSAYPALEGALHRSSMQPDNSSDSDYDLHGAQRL

Question: For B1, which “elimination of CCRF-CEM cells after 18 hours (luciferase-based killing assay)” value (“elimination of CCRF-CEM cells” below) is on record?
Answer: ~100%

Question: How did the “elimination of CCRF-CEM cells” value turn out when B2 was run?
Answer: ~100%

Question: Which “elimination of CCRF-CEM cells” value does the source give for B3 here?
Answer: ~100%

Question: With B4 as the binder, how does the “elimination of CCRF-CEM cells” value read?
Answer: ~100%

Question: B5 was tested. Which “elimination of CCRF-CEM cells” value did it give?
Answer: ~100%

Question: How did the “elimination of CCRF-CEM cells” value turn out when B6 was run?
Answer: ~100%

Question: How did the “elimination of CCRF-CEM cells” value turn out when B7 was run?
Answer: ~100%
